Test results reported in patent publication US20210214460A1 (AstraZeneca / MedImmune, published 2021).

T1: membrane-bound human BCMA (human, UniProt Q02223 1-184)
T1 construct: whole, on cells; also called huBCMA
T1 sequence (looked up): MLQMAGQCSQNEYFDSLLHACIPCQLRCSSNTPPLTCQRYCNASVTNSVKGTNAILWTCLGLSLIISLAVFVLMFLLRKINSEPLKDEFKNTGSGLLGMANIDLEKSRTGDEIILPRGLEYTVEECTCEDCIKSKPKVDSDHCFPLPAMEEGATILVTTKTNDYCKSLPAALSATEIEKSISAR

T2: monomeric human sBCMA (GenScript) (human, UniProt Q02223 1-54)
T2 construct: extracellular domain; also called monomeric BCMA; monomeric (soluble) BCMA
T2 sequence (looked up): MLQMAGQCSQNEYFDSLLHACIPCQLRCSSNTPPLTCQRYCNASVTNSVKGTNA


Key:
[1] = molecular target: T1, membrane-bound human BCMA; assay: flow cytometry on Ad293 cells expressing human BCMA, printed as apparent affinity
Description: (§1) Binding of 15B2GL, I09, L15, and J6M0 to membrane-bound human BCMA was evaluated using flow cytometry in multiple myeloma and plasma cell leukemia cell lines that endogenously express BCMA (NCI-H929 and MM.1S, respectively). Binding of 15B2GL, 109, L15 to membrane-bound human BCMA was also evaluated in Ad293 cells expressing human BCMA. Binding assays were performed by incubating the anti-BCMA antibodies with 200,000 cells for 30 minutes at 4° C. followed by two washes with PBS+2% FBS (FACS Buffer). A range of antibody concentrations were evaluated using a 12-point, 3-fold dilution series. Cells were then incubated with 5 ug/mL goat-anti human IgG-AF647 secondary antibodies (Thermo Fisher Scientific, Waltham, Mass.) at 4° C., followed by two washes in PBS+2% FBS. Cells were resuspended in 200 uL PBS+2% FBS+DAPI.
(§2) Fluorescence of live, single cells was measured using a BD Biosciences LSRII cytometer and BD FACSDiva™ software (BD Biosciences, San Jose, Calif.). Data were analyzed using FlowJo™ software (FlowJo, LLC, Ashland, Oreg.). Mean fluorescence intensity values were used to determine percentage bound and EC50 was determined using Prism™ software (GraphPad Software Inc, La Jolla, Calif.).

[2] = molecular target: T2, monomeric human sBCMA (GenScript); assay: SPR (ProteOn XPR36), antibody captured by anti-Fc, sBCMA 100-6.25 nM as analyte
Description: The binding of 15B2GL monoclonal antibody and optimized clones I09, L15, P10, N22, and M02 (described in Example 1) was assessed using monomeric human sBCMA (GenScript, Piscataway, N.J.) using a ProteOn™ XPR36 instrument (Bio-Rad, Hercules, Calif.). The binding of J6M0 also was assessed for comparison. Standard amine coupling was used to immobilize 25 μg/ml anti-Fc polyclonal antibody (Jackson ImmunoResearch, West Grove, Pa.) prepared in 10 mM sodium acetate buffer (pH 4.5) to the surface of a ProteOn™ GLC biosensor chip (Bio-Rad, Hercules, Calif.) pre-activated with 20 mM EDAC (1-ethyl-3-(3-dimethylaminopropyl)carbodiimide hydrochloride) and 5 mM Sulfo-NHS (N-hydroxysulfosuccinimide) at a density of ˜200-600 resonance units (RU). 15B2GL, I09, L15, P10, N22, M02, and J6M0 were subsequently injected at a concentration of 1 μg/ml for capture by the immobilized anti-Fc polyclonal antibody. The sensorgram was recorded by flowing two-fold serial dilutions of sBCMA prepared in PBS (pH 7.4) with 0.005% (v/v) Tween®-20, ranging from 100-6.25 nM, over the captured surface for 150 seconds at 75 μL/minute with dissociation time of 600 seconds. ProteOn™ data analysis software was used to analyze the data.

[3] = molecular target: T1, membrane-bound human BCMA; assay: flow cytometry on NCI-H929 cells (endogenous BCMA), printed as apparent affinity
Description: as §1, §2

[4] = molecular target: T1, membrane-bound human BCMA; assay: flow cytometry on MM.1S cells (endogenous BCMA), printed as apparent affinity
Description: as §1, §2

Binder | EC50 [1] [nM] | Kd [2] [nM] | EC50 [3] [nM] | EC50 [4] [nM]
L15 (lead optimized clone of 15B2GL) (antibody, V domains shown, Cloned into an IgG mammalian expression vector ("Maia") designed for ADC conjugation) VH: EVQLVESGGGLVKPGGSLRLSCAASGFTFSSYSMNWVRQAPGKGLEWVSSISGQSNYIYYADSVKGRFTISRDNAKNSLYLQMNSLRAEDTAVYYCARGGNYFVEYFQYWGQGTLVTVSS VL: EIVLTQSPGTLSLSPGERATLSCRASQYISSNNLAWYQQKPGQAPRLLIYGASNRATGIPDRFSGSGSGTDFTLTISRLEPEDFAVYYCQQYADSPITFGQGTKLEIK | 4.48 | 4.5 | 4.2 | 4.2
M02 (lead optimized clone of 15B2GL) (antibody, V domains shown, Cloned into an IgG mammalian expression vector ("Maia") designed for ADC conjugation) VH: EVQLVESGGGLVKPGGSLRLSCAASGFTFSSYSMNWVRQAPGKGLEWVSSISGQSNYIYYADSVKGRFTISRDNAKNSLYLQMNSLRAEDTAVYYCARGGNYYVEYFQYWGQGTLVTVSS VL: EIVLTQSPGTLSLSPGERATLSCRASQYISSNNLAWYQQKPGQAPRLLIYGASNRATGIPDRFSGSGSGTDFTLTISRLEPEDFAVYYCQQYSSDPITFGQGTKLEIK | – | 9.9 | – | –
N22 (lead optimized clone of 15B2GL) (antibody, V domains shown, Cloned into an IgG mammalian expression vector ("Maia") designed for ADC conjugation) VH: EVQLVESGGGLVKPGGSLRLSCAASGFTFSSYSMNWVRQAPGKGLEWVSSISGSSNYIYYADSVKGRFTISRDNAKNSLYLQMNSLRAEDTAVYYCARGGNYFVEYFQYWGQGTLVTVSS VL: EIVLTQSPGTLSLSPGERATLSCRASQYISSNYLAWYQQKPGQAPRLLIYGASNRATGIPDRFSGSGSGTDFTLTISRLEPEDFAVYYCQQYSSSPITFGQGTKLEIK | – | 16 | – | –
I09 (lead optimized clone of 15B2GL) (antibody, V domains shown, Cloned into an IgG mammalian expression vector ("Maia") designed for ADC conjugation; also called 109 [sic]) VH: EVQLVESGGGLVKPGGSLRLSCAASGFTFSSYSMNWVRQAPGKGLEWVSSISGSSNYIYYADSVKGRFTISRDNAKNSLYLQMNSLRAEDTAVYYCARGGNYFVEYFQQWGQGTLVTVSS VL: EIVLTQSPGTLSLSPGERATLSCRASQYISSNYLAWYQQKPGQAPRLLIYGASNRATGIPDRFSGSGSGTDFTLTISRLEPEDFAVYYCQQYSSDPITFGQGTKLEIK | 5.3 | 9.8 | 5.4 | 4.8
P10 (lead optimized clone of 15B2GL) (antibody, V domains shown, Cloned into an IgG mammalian expression vector ("Maia") designed for ADC conjugation) VH: EVQLVESGGGLVKPGGSLRLSCAASGFTFRSYSMNWVRQAPGKGLEWVSSISGQSNYIYYADSVKGRFTISRDNAKNSLYLQMNSLRAEDTAVYYCARGGNYYVEYFQYWGQGTLVTVSS VL: EIVLTQSPGTLSLSPGERATLSCRASQYISSNYLAWYQQKPGQAPRLLIYGASNRATGIPDRFSGSGSGTDFTLTISRLEPEDFAVYYCQQYTDSPITFGQGTKLEIK | – | 5.3 | – | –
